The numbers were not newly measured in publication PMC2730980, which cites them from elsewhere.

The data set concerns the target Synaptotagmin II (Rattus norvegicus) (UniProt P29101).
UniProt P29101, sequence (P29101 whole entry): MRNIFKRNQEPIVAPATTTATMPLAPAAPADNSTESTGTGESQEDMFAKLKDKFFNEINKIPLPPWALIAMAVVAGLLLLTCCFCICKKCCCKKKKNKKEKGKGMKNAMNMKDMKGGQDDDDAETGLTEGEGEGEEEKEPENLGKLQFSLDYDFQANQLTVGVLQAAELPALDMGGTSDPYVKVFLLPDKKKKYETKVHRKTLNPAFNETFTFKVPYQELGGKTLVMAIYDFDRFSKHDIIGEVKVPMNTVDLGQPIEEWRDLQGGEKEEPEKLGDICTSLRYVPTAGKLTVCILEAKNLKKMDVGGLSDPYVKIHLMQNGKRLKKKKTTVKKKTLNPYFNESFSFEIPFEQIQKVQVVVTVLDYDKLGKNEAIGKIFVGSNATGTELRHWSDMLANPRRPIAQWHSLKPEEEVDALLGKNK

With “Botulinum neurotoxin type B (from UniProt P10844)”, the Kd (as a rule, the free concentration of one partner at which half of the binding sites on the other are occupied at equilibrium, for simple one-to-one binding) was 0.4 nM.
